Laboratory results reported in patent US20240352438A1, “MEANS AND METHODS FOR DETOXIFYING OCHRATOXIN A” (DSM Austria GmbH, priority 2021, published 2024).
Where a chain is given by its changes, count along the chain named.

B1: 160 (protein)
chain: MTTRTRILTAFLSLLAANACAADAAPAAPHTVVLRAARMFDGASGKLVDHPQLTIVGNKIVRIAQGDKAEVPAGAEVVDLGDATLLPGFIDAHVHLSGQSSDNWYGDFFDNMMRFPAEQALYGAYYARITLEAGFTSVRDVGSTDWVALGLRNAIDAGKVPGPRMLVSNYAVGSTGGHADQDPIPPHKLPLAGPLQGVCNGPEECRAAVRYQIKYGANVIKFMPSGGVLSLSDPVDAPELSQDEMNAVIGESHAWGRKVAAHAHGDKAAKMAVAAGVDSIEHGSFIEDDTLRAMKAKNVYLVPTISAVAHVEEKIGTYPPVIAEKGRAAAAHLRQTFRHAVQIGVPIALGTDAGVGAHGSNAREFRYMVENGLTPAQALLAGTANAARLLGTFDRVGTLEAGKLADVVAVPGNPIADITVTERPLFVMKDGVVVRRDAVR
modifications: exemplary polypeptide
B2: 168 (protein)
chain: B1 chain with A171P, V308A
modifications: exemplary polypeptide
B3: 164 (protein)
chain: B1 chain with A171P, I184V, V308A, Y318F
modifications: exemplary polypeptide
B4: 165 (protein)
chain: B1 chain with A171P, I184V, Y318F
modifications: exemplary polypeptide
B5: 167 (protein)
chain: B1 chain with A171P, I184V, V308I, Y318F, G354A
modifications: exemplary polypeptide
B6: 162 (protein)
chain: B1 chain with Y318F, G354A
modifications: exemplary polypeptide
B7: 166 (protein)
chain: B1 chain with A171P, I184V, V308I
modifications: exemplary polypeptide
B8: 169 (protein)
chain: B1 chain with A171P
modifications: exemplary polypeptide
B9: 232 (protein)
chain: B1 chain with D233Q, V308I, Y318F
modifications: exemplary polypeptide
B10: 163 (protein)
chain: B1 chain with V308I, G354A
modifications: exemplary polypeptide
B11: 92 (protein)
chain: B1 chain with V308I, Y318M
modifications: exemplary polypeptide
B12: 142 (protein)
chain: B1 chain with G142P, V308I, Y318F
modifications: exemplary polypeptide
B13: 117 (protein)
chain: B1 chain with F108Y, V308I, Y318F
modifications: exemplary polypeptide
B14: 90 (protein)
chain: B1 chain with V308I, Y318F, G354A
modifications: exemplary polypeptide
B15: 135 (protein)
chain: B1 chain with Y300C, V308I, Y318F, L389C
modifications: exemplary polypeptide
B16: 109 (protein)
chain: B1 chain with V308I, K314Q, Y318F
modifications: exemplary polypeptide
B17: 149 (protein)
chain: B1 chain with A179T, V308I, Y318F
modifications: exemplary polypeptide
B18: 99 (protein)
chain: B1 chain with F109V, V308I, Y318F
modifications: exemplary polypeptide
B19: 126 (protein)
chain: B1 chain with H253E, D278R, V308I, Y318F
modifications: exemplary polypeptide
B20: 134 (protein)
chain: B1 chain with N111D, V308I, Y318F
modifications: exemplary polypeptide
B21: 118 (protein)
chain: B1 chain with M113Q, V308I, Y318F
modifications: exemplary polypeptide
B22: 102 (protein)
chain: B1 chain with M112W, V308I, Y318F
modifications: exemplary polypeptide
B23: 100 (protein)
chain: B1 chain with F109L, V308I, Y318F
modifications: exemplary polypeptide
B24: 101 (protein)
chain: B1 chain with M112I, V308I, Y318F
modifications: exemplary polypeptide
B25: 133 (protein)
chain: B1 chain with A307V, V308I, Y318F
modifications: exemplary polypeptide
B26: 129 (protein)
chain: B1 chain with S100C, V308I, T317C, Y318F
modifications: exemplary polypeptide
B27: 93 (protein)
chain: B1 chain with V308I, Y318F, A329G
modifications: exemplary polypeptide
B28: 110 (protein)
chain: B1 chain with V308I, K314E, Y318F
modifications: exemplary polypeptide
B29: 104 (protein)
chain: B1 chain with I184F, V308I, Y318F
modifications: exemplary polypeptide

Assay: Enzymatic activity comparison: activity remaining after 65° C. for 10 min at pH 6.0, relative to SEQ ID NO: 1
Assay type: physicochemical
Settings: not given
Description: To compare the temperature behavior and thermostability of selected enzymes to one another, enzyme was incubated at 65° C. for 10 min at pH 6.0. The enzymatic activity remaining after incubation was compared to the remaining activity of the enzyme of SEQ ID NO: 1 after incubation, the latter being set to 100%, see Table 16.

Molecule | Enzymatic activity remaining after incubation, compared to SEQ ID NO: 1 (set to 100%) [%]
B1 | 30
B2 | 48
B3 | 15
B4 | 33
B5 | 26
B6 | 7
B7 | 37
B8 | 30
B9 | 25
B10 | 17

Assay: OTA detoxification activity assay (specific activity, fluorescence reduction ex/em 390/450 nm)
Assay type: biochemical
Settings: pH 6.0; SEQ ID NO: 1 = 100%
Procedure, shortened: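 Recombinant enzyme preparation with 200 ng/mL OTA in 100 mM sodium phosphate, at pH 6.0 and pH 7.5, 37° C. Degradation followed as the fall in fluorescence at ex/em 390/450 nm. Specific activity taken from the initial linear slope; one unit degrades 1 μmol OTA per min at a starting OTA of […].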

Molecule | Specific OTA detoxification activities in % compared to the enzyme of SEQ ID NO: 1, pH 6.0 [%]
B1 | 78
B2 | 41
B11 | 37
B12 | 34
B13 | 40
B3 | 29
B14 | 99
B4 | 46
B15 | 68
B16 | 74
B17 | 30
B18 | 52
B5 | 54
B19 | 63
B20 | 41
B6 | 191
B7 | 72
B8 | 50
B21 | 26
B22 | 50
B23 | 43
B24 | 82
B25 | 23
B26 | 51
B27 | 20
B10 | 145
B28 | 33
B29 | 102

Same assay, conditions: pH 7.5; SEQ ID NO: 1 = 100%

Molecule | Specific OTA detoxification activities in % compared to the enzyme of SEQ ID NO: 1, pH 7.5 [%]
B1 | 84
B2 | 62
B11 | 52
B12 | 8
B13 | 80
B3 | 63
B14 | 162
B4 | 71
B15 | 70
B16 | 107
B17 | 13
B18 | 58
B5 | 73
B19 | 75
B20 | 52
B6 | 124
B7 | 68
B8 | 45
B21 | 22
B22 | 89
B23 | 28
B24 | 89
B25 | 27
B26 | 83
B27 | 17
B10 | 112
B28 | 48
B29 | 71
